Data as given in PMC2894018 (2010).

B1: HIV-1 Vpr from NL43 (Vpr^wt) fused to the N- or C-terminal fragment of Venus [HIV-1 (NL43)] / itself (parent complex)
chain: MEQAPEDQGPQREPYNEWTLELLEELKSEAVRHFPRIWLHNLGQHIYETYGDTWAGVEAIIRILQQLLFIHFRIGCRHSRIGVTRQRRARNGASRS

Variants of: B1
Experiment: BiFC (bimolecular fluorescence complementation), flow cytometry on cells; cells cotransfected with VC and VN fusions of the same Vpr mutant; vector control 0.1; parent: 35.7

Variant | response
chain 1 A30L | 1.19 % BiFC positive cells
chain 1 L68E | 1.03 % BiFC positive cells
chain 1 H71R | 1.65 % BiFC positive cells
